Measured values taken from PMC4075432.

What was measured:
[1] = target: BCL2 (human (endogenous in OCI-LY8)) (UniProt P10415); test: co-IP
GST-BCL2 = GST-BCL2 (UniProt P10415); test: fluorescence polarisation

Substance	percent of PARP1 displaced from BCL2 by 100 nM ABT-737 [1]	Ki (GST-BCL2)
poly(ADP) ribose polymerase 1 (PARP1) (from UniProt P09874 1-1014) (enzyme)	65%	
purified PARP1 (from UniProt P09874 1-1014) (enzyme)		77 nM
